Data on 15 sequences can be found in a protein production outcome set (Wang et al. 2014).

The data set is described as follows: label from the status in PepcDB records.
Regarding “MEQLIFKQTYKKIEPFILLLNGLLLAAAISIVHIVGMHAYHLFEAASSNVPLITLAFGISAVLSSVAIWLTSRFTLPIFRLILSSVIMGIGISASYYVSMLGWNIDIYKKDYTSFLILFSVLIAMSGSGLAFLLAYKLKESERHRISLKLAFAVMMTLSIMGMHYTALISTNITDKFVSQYQAEHDLLLFTIILVTCLVLVASFIVAVLEQRLNQRNLELRKANKELANLSIQDNLTKLPNRLYLVDYAEVLLSDHRYKDQKIAFLYIDLDRFKSVNDAFGHHIGDQLLIQMANRLHWQLNEKCKLLRIGGDEFLLIAENTDTEEAMQLAEKVLHLIQDSYQISGKEINISASLGIALFPEHGQNVQDLLMNADAAMLMSKEQGRNTYTVFSYSTHQQETRSQSKLINDLYKAVEEKQFVLYYQPKFNTNLEICGVEALIRWNHPSLGMLTPHMFIGGAEKTGLIIPMGYWALEQACQQIQEWERSNTQFYPIAVNLSALQFENKKLFSTLEGLLKKYQIQPHHLIIEITESTAMRHIDLSIRACERLRDMGIRVAIDDFGTGHSSFLYLKDLPVDELKIDRGFIVDLKPGSKEEVILESIIHLAKKLGLTVTAEGVETQQQVEILTRLGCQQFQGYLLGMPVNVGQLIQSQGAHFV”, the protein production result is on record as “failed”.
For “MEQLVSMGFSSDLAAEALTATGGDSIQKATDWILSHRSSPQSTATLQPKLDRFLRLHPKALAPAMGDDSSKRPNPKTQIHVAADDSNKRHKLSSSSHRQHQPLSERMRPRTLDDVVGQDHLLSPSSLLRSAVESNRLPSIVFWGPPGTGKTSIAKSLINSSKDPSLYRFVSLSAVTSGVKDVRDAVESAKRLNLEGRKRTVLFMDEVHRFNKSQQDTFLPVIEDGSILFIGATTENPSFHLITPLLSRCRVLTLNPLKPNHVETLLRRAVDDSERGLPNSVEVDDSVIEFLANNCDGDARVALNALEISATMATTRAGTDAVVSIDDAKEALQCKHLAYDKAGEQHYNLISALHKSMRGGDANAAIYWLARMLEGGEEPLYIARRLIRFASEDIGLADPSALTQAVACYQASHFLGMPECNVILAQCTAYLALAPKSIAVYRAIGAAQKVVKDSVGQNEGVPLHLRNAPTKLMKELGYGKEYIYPPSDPSSAAGQTYLPPSLLHHKFLEWPEGASGDFQDQEHRL”, the protein production result was “failed”.
In the case of “MEQNSYVIIDETGIHARPATMLVQTASKFDSDIQLEYNGKKVNLKSIMGVMSLGVGKDAEITIYADGSDESDAIQAISDVLSKEGLTK” it was “not failed”; in that of “MEQSVPARGTSPARRLATAARHCLVLAVASILAACTTITAVTPNEPEQRLVWPGPPLQPRIEWVREVYNQKGLGVSPGFWGRIARFVLGEKEERFIRPHGILADEQIFALVDSGAGRVHLIDLKRGTYRLLPEEGKTPMVSPIGIARDSRGAIYVTDSGTGLIHRFSDDGDSFVALDLRPLHRPTGIAFNPVTGLLYVAETGAHRIVAFDSAGKETLRIGGSGMEPGAFNFPTDLAVMADGRLLVTDSLNSRIQIFTADGKPAGSFGEAGDTPGRFTRPKGVAVDSEGHIYVCDSQQDMVQIFDETGRLLLAFGDKGSLPGQFWMPSGIHIANDMIYVSDTYNQRVQVFRYLKEEPWGQDPHTPD”, “failed”; in that of “MERHVPEPTHTLEGWHVLHDFRLLDFARWFSAPLEAREDAWEELKGLVREWRELEEAGQGSYGIYQVVGHKADLLFLNLRPGLDPLLEAEARLSRSAFARYLGRSYSFYSVVELGSQEKPLDPESPYVKPRLTPRVPKSGYVCFYPMNKRRQGQDNWYMLPAKERASLMKAHGETGRKYQGKVMQVISGAQGLDDWEWGVDLFSEDPVQFKKIVYEMRFDEVSARYGEFGPFFVGKYLDEEALRAFLGL”, “not failed”.
In the case of “MERILLVLDDTGRGEIAFQKLKKLAEDGLRGEVYILYIREMEVPPFVPEEKELAAYHRLMTQSMKKLEGFKNQLEKAGLKVSDVSVVFGKYADRLLLVEKQIKPDLIVVGFKGGLLKRVIGGFFGKDPCEVLLKKSKASLLICR” it was “not failed”.
To “MERLKIQVLVDNNTYIDRYFVGEPAVSYYIEIDGNRILFDSGYSDVFISNAEKLNIDLGNLTHVVFSHGHNDHTRGIQFLENRYDLSTVELVSHPNCFIPRKHGEKSIGAPFSAEEIKNIFMYNPKDKPFNLSKNCVFLGEIPSINDFEKRAKIGKCKIGDLWEDDYVLDDSAIVCKTDKGIFIVTGCSHSGICNIVEYAKKVCGDDRVIGILGGFHLFELNNRLDSTIQYLDKEEIRMLYPCHCVSFKVKAKMNEILNINEVGVGLTISILEHHHHHH” belongs “not failed”.
Turning to “MERLNSKLFVENCYIMKENERLRKKAELLNQENQQLLFQLKQKLSKTKNSNNGSNNDNKSSSASGQS”, the protein production entry was “failed”.
To “MERLSPVFATSKSSNMEVEHWMTSLKEVEKVLDSVEPKLTSSGTKWRVVAQHIKDICSDLNQIFNKEDPRYEVVQAGASAAHDFDVRYLDIHKVRTPHEPLEMRHSKGRKHGREIARLLEKIQKYRQEIEEIKKEYKETDKYRERYDHYKVKLDNLEKKNKDQERIERNQQKFKDAEAAYSSVCADLIQKMETVWKKHVSIFAEAASAVWSTQLQYAKALEAAANPIVPYLQQEEQEEEEEEEAASGTQGRVAEKAYHTNEEKVENSFQKNSAIPPSFRTASEQLTEQSKNINNAKNTSETSPAEDIEA” belongs “not failed”; to “MERPVPVRVEPRQLALDLPHAESLSREDFLEGSANTAALSLIESWPDWPNRIMMLVGPEGSGKSHLAAIWAELAGARSTAAQALNAAAVPGALATGAVVVEDLVPGSFDERALFHLMNMAREDEAYVLFTGRVEPSALSIELRDLKSRLRTVPVVSLLPPDDALFRALIVKFCADRQMCIDAALVGYLANRIDRSFVAARQVVEKLDTTALRLGRPVTRALASEVLRADLEHHHHHH”, “failed”; to “MERQQQQQQQLRNLRDFLLVYNRMTELCFQRCVPSLHHRALDAEEEACLHSCAGKLIHSNHRLMAAYVQLMPALVQRRIADYEAASAVPSVAAEQPGVSPSGS”, “not failed”.
To “MERRGELHRVRVPVSAELEIAEIADRVVKAGGPALLFERVVGKDFPVAIGLFGTRARTAFALGVEDLDELARKVEALLALEPGKGGLSALLGLLPKLPLLRGFFPRRVRRAPVQEVVWRGEEVDLRRLPVLKCWPLDGGPFLTLPLVITKDPETGELNLGMYRMQVLDPRSTAMHWQWHKVGRRHLEKAKRLGRRLEVAVALGGDPVLTYAATAPLPPLPGVSEFHLAGFLRGAPIELARGVTVDLPVPAEAEFVLEGYIDPEEPLVEEGPFGDHTGFYTPVDLYPRFHVTAVTHRKGAIYPATLVGVPPMEDAYLIEATERLFLPALRLVLPEVVDYHMPPEGVAHNWVNVSLRKAYPGQAYKVAYGMLGLGQMMFAKVIVAVDADVPVKPGFAALLEALKHALPGRDTLLLRGPVDVLDHSSRAFAFGGKLVIDGTRKLPEEGGEAPFVPKAHPGLPEDPEVLDQRQWPGLWGAVLAKRRPHQAWEVAERLLRAPQSAGIRLLLLADEDTALSPEELLWYVLNNVDPERDARVMPGVEGPVLVLDGTRKLPEEGFPRVWPERIRMDPKVKALVEARWAEYGLGWTTVGE” belongs “failed”.
To “MERRLGVRAWVKENRGSFQPPVCNKLMHQEQLKVMFIGGPNTRKDYHIEEGEEVFYQLEGDMVLRVLEQGKHRDVVIRQGEIFLLPARVPHSPQRFANTVGLVVERRRLETELDGLRYYVGDTMDVLFEKWFYCKDLGTQLAPIIQEFFSSEQYRTGKPIPDQLLKEPPFPLSTRSIMEPMSLDAWLDSHHRELQAGTPLSLFGDTYETQVIAYGQGSSEGLRQNVDVWLWQLEGSSVVTMGGRRLSLAPDDSLLVLAGTSYAWERTQGSVALSVTQDPACKKPLG” belongs “failed”; to “MERSALVTGGASGLGRAAALALKARGYRVVVLDLRREGEDLIYVEGDVTREEDVRRAVARAQEEAPLFAVVSAAGVGLAEKILGKEGPHGLESFRRVLEVNLLGTFNVLRLAAWAMRENPPDAEGQRGVIVNTASVAAFEGQIGQAAYAASKGGVVALTLPAARELAGWGIRVVTVAPGLFDTPLLQGLPEKAKASLAAQVPFPPRLGRPEEYAALVLHILENPMLNGEVVRLDGALRMAPR”, “not failed”.
As to “MESEGEAQMFADCDQKTVKQTAAKPMSSKKKQDFQALASDRQLAIVFSSMIQVSEAFDYGIGNPEYFVRISMTEEEADIAKENLESIKLENKSLKKQNSEAVALLQKTRNQDMSRIEIQQLTENRAGFFETADSMIKLINQVTPKNAKKTRQQLDQLKKQYTQYSAESIKIMNSIVKKQKADKASFERHLEALLQKQPGQQVRSELYLEHHHHHH”, the protein production result was “not failed”.
